± gives the standard deviation of the averaged measurements.
tested on: ATP; experiment: switch fluorescence ratio, 500 uM ATP over buffer (Cy3 cluster intensity, sum of 5 cycles each) (fold (ratio)); higher = stronger signal-on switching upon ATP binding; sequences stand for … in TCGTCGGCAGCGTCAGATGTGTATAAGAGACAGTTTTTTTTTTTTTTTTTTTTTTTTT…TC; settings: aptamer strand: ATP DNA aptamer (quencher-CACCTGGGGGAGTATTGCGGAGGAAGG + anchor), 100 nM annealed; ATP concentration: 500 uM
Summary of the method: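 Clusters carrying Cy3-labelled switching strands on a modified Illumina MiSeq flow-cell were annealed to 100 nM quencher-labelled ATP aptamer and imaged in selection buffer. They were imaged again after 15 min with 500 uM ATP at 22 °C, over five buffer/ATP cycles with NaOH stripping and re-annealing in between. For each cluster, the fluorescence ratio is the summed Cy3 intensity of the target cycles divided by that of the buffer cycles, averaged per switch-domain sequence. Clusters outside 100-1000 RFU were left out.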
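Also: ATP exposure 15 min at 22 °C before imaging.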

| Sequence | switch fluorescence ratio |
| --- | --- |
| TTTCTTTAAA | 1.01 ± 0.019 |
| GGGGTTGATG | 0.965 ± 0.022 |
| TGCGGGGTTT | 1.02 ± 0.054 |
| TAACGGTCAG | 1.025 ± 0.0095 |
| AATTTCGGAC | 1.07 ± 0.071 |
| TGAGCCCCGG | 1.03 ± 0.028 |
| TTGCTGGTTG | 1.01 ± 0.03 |
| TGGATGAGGG | 0.99 ± 0.03 |
| AGGTGACGG | 0.993 ± 0.058 |
| TGGTGTGTCA | 1.005 ± 0.0092 |
| CATGTGATGG | 1.06 ± 0.044 |
| GAGTGTTTGG | 0.949 ± 0.034 |
| TTAACGGTTC | 0.983 ± 0.017 |
| GTTGTCATGT | 0.991 ± 0.017 |
| CTAGGAGATA | 0.9736 ± 0.0014 |
| ACGGGGTGCG | 0.986 ± 0.032 |
| GCAATTAAAG | 1.12 ± 0.14 |
| ACTGGAGGGT | 1.02 ± 0.044 |
| AAGTGGGTGG | 1.02 ± 0.021 |
| ATGTAGAGG | 0.988 ± 0.013 |
| TCCGGGGTAA | 1.37 ± 0.51 |
| TTACGTCCGT | 1.04 ± 0.02 |
| AAGTAGACTG | 0.996 ± 0.11 |

| Sequence | switch fluorescence ratio |
| --- | --- |
| AAGCAGTCGA | 1.09 ± 0.015 |
| GTGGTAAGCT | 1.02 ± 0.049 |
| AAGCTCTTGT | 1.01 ± 0.03 |
| TCATGGTATG | 0.997 ± 0.024 |
| GTAGTGCAAT | 1.1 ± 0.018 |
| ACGATGGGCA | 1.05 ± 0.015 |
| CCAGCGAATG | 1.05 ± 0.028 |
| TTTACTAGTT | 1.03 ± 0.037 |
| CAGTAATAGG | 1.07 ± 0.0075 |
| CGGTTCCTAA | 0.994 ± 0.016 |
| ACGAGGTTGT | 0.982 ± 0.025 |
| ATCCTTTTGG | 1.03 ± 0.094 |
| GTCCTCGCAT | 4.8 ± 0.54 |
| GGATGCAGGG | 0.999 ± 0.012 |
| ACCTTTTGTA | 1 ± 0.032 |
| GAGTCCATTA | 0.981 ± 0.015 |
| GTATGTTAGG | 1.0143 ± 0.00055 |
| GGGAGAGAGG | 0.984 ± 0.011 |
| GAGGGGGCCG | 0.996 ± 0.034 |
| ATGGAGTGG | 1 ± 0.049 |
| TACAAAGGCG | 1.06 ± 0.018 |
| TATATGGAGG | 0.956 ± 0.032 |
| CAGTTTCGGG | 1.004 ± 0.01 |

| Sequence | switch fluorescence ratio |
| --- | --- |
| TGAGGGAAGA | 1.05 ± 0.051 |
| ATCGATGGGA | 0.987 ± 0.07 |
| GCTAGAGACG | 1.06 ± 0.054 |
| TGCGTAAGGG | 1.03 ± 0.011 |
| TCAGTAGAGA | 0.995 ± 0.018 |
| ATTAAGCATG | 1.004 ± 0.0088 |
| TTGATTTATT | 0.994 ± 0.017 |
| CTAATGCGGA | 1.01 ± 0.019 |
| CTAACTTGCG | 0.995 ± 0.014 |
| GATCGTATTC | 1.05 ± 0.088 |
| TAGGTGCCTG | 1.07 ± 0.03 |
| TATAGGACTA | 1.01 ± 0.014 |
| ATAAGGCGAG | 0.998 ± 0.025 |
| CTGTCCGGTA | 1.056 ± 0.008 |
| GGATAGGGGA | 1.01 ± 0.017 |
| TGGGGG | 1 ± 0.033 |
| ACAAGTTTTG | 1.04 ± 0.0022 |
| GCATTTCCCG | 1.06 ± 0.091 |
| GCTAAAATGG | 0.9916 ± 0.0076 |
| TCGGCCGGAA | 1.08 ± 0.025 |
| TTAGGGAGAG | 0.996 ± 0.016 |
| ACGGGAGTGG | 0.998 ± 0.011 |
| TTATTAAGAC | 1 ± 0.032 |

| Sequence | switch fluorescence ratio |
| --- | --- |
| CCGTTGACCG | 1.07 ± 0.057 |
| CCCGAGCCTC | 1.36 ± 0.1 |
| AGGGGTAGTA | 1.03 ± 0.04 |
| ATATAATAGT | 0.991 ± 0.015 |
| CAGGTTTTCT | 0.9968 ± 0.0018 |
| AATTAAGAGG | 1 ± 0.011 |
| TTGCATAGGG | 1.02 ± 0.023 |
| ATGCTTCGTG | 0.975 ± 0.027 |
| ATTTTTTATT | 0.9923 ± 0.0097 |
| CAGGGTATGA | 1.007 ± 0.0046 |
| GTTGAGCGTC | 0.955 ± 0.032 |
| TTCTTTCTGT | 0.998 ± 0.0026 |
| TGAGGGATTC | 1 ± 0.047 |
| TGGGGAACAA | 1 ± 0.055 |
| ACTAGGGGGA | 0.986 ± 0.023 |
| GGGTCGCGCC | 1.01 ± 0.046 |
| GGGTAGTTTT | 0.989 ± 0.018 |
| CAATATATCA | 0.999 ± 0.022 |
| TCTAAAATG | 0.972 ± 0.029 |
| TTTTTGCACC | 1.04 ± 0.037 |
| TCCAGAGTGC | 1.017 ± 0.0033 |
| TGTTTCGTGT | 0.982 ± 0.032 |
| TCGTTAATGT | 1.01 ± 0.035 |

| Sequence | switch fluorescence ratio |
| --- | --- |
| ACATAAGGTT | 1.03 ± 0.052 |
| GGGGTTGGTG | 0.989 ± 0.02 |
| CTAGTGGCTG | 1.02 ± 0.03 |
| CACTTGATGT | 0.996 ± 0.023 |
| ACATGGGGTC | 0.977 ± 0.012 |
| AAAGAATTGG | 0.975 ± 0.045 |
| TAGTTTTTCA | 1.01 ± 0.039 |
| GTGGAATGGT | 0.986 ± 0.024 |
| GCGGTACACG | 1.01 ± 0.027 |
| GGGATTGGCT | 1.01 ± 0.015 |
| AGGTAGGGCT | 1 ± 0.029 |
| CGTATTTTGG | 0.986 ± 0.032 |
| AAGGATAGTT | 1.01 ± 0.013 |
| AAAATATTTT | 0.981 ± 0.027 |
| GTTTGAGACG | 0.903 ± 0.044 |
| GACGACGGTT | 1.55 ± 0.1 |
| CAGTCGGGTT | 1.03 ± 0.079 |
| ATTTAGTAGT | 0.994 ± 0.057 |
| GGCGCGGGGG | 1.03 ± 0.023 |
| TGAATTTCTG | 1.029 ± 0.0094 |
| ATGCGCGCCG | 0.982 ± 0.037 |
| CGCTGAGTAT | 0.995 ± 0.021 |
| AATAGGCAAT | 1.16 ± 0.034 |

| Sequence | switch fluorescence ratio |
| --- | --- |
| CAGGGGTTAG | 0.9927 ± 0.0026 |
| AGATAGGGCA | 0.994 ± 0.032 |
| GCATTCGCCT | 1.08 ± 0.035 |
| ATGTTAGACT | 1.021 ± 0.0071 |
| GACAGCGCTA | 1.01 ± 0.042 |
| GCTCTCCTGT | 1.02 ± 0.023 |
| TTTTCGATGT | 0.994 ± 0.042 |
| AGAATCAGGC | 1.04 ± 0.17 |
| TGCAATAATA | 1.06 ± 0.091 |
| TTTTGCCTTG | 0.967 ± 0.043 |
| GGAGAATGCG | 1.02 ± 0.013 |
| AGGCCAGCTG | 0.993 ± 0.062 |
| CATTGACATA | 1.07 ± 0.034 |
| GAGTTAGTGC | 0.982 ± 0.039 |
| GATTGGGAGC | 1.01 ± 0.037 |
| CTTTACTTCG | 1.07 ± 0.027 |
| TGGGGCCTGG | 1.1 ± 0.23 |
| AGAAATTCGA | 1.03 ± 0.012 |
| ACAGGGATTT | 1.03 ± 0.041 |
| TAAATACGGT | 1.03 ± 0.062 |
| GTAGGGGAGC | 0.977 ± 0.06 |
| TAATCGCATA | 2.05 ± 1.2 |
| GATGCAGCAA | 1.22 ± 0.062 |

| Sequence | switch fluorescence ratio |
| --- | --- |
| AAGGCGAGGG | 1.01 ± 0.015 |
| GCCGAAGTTA | 1.12 ± 0.042 |
| TACGGGTAT | 0.9977 ± 0.0024 |
| TAAGGTAAGT | 0.987 ± 0.021 |
| TGTCTATGGG | 0.988 ± 0.023 |
| ATAGGAACGC | 0.995 ± 0.026 |
| GCGGGACGTG | 0.9857 ± 0.0098 |
| TGGCGGGATA | 1.009 ± 0.0013 |
| GTGGGTTCGC | 1 ± 0.043 |
| GAGTTGCGCG | 1.01 ± 0.051 |
| TCGATTGGCG | 1.07 ± 0.1 |
| TGCTAATTGA | 1.01 ± 0.037 |
| TTTAGAGTAT | 0.992 ± 0.018 |
| TTGATGCAAA | 1.01 ± 0.05 |
| GGGTCTTTGA | 1.03 ± 0.041 |
| GGAATCAAAC | 0.996 ± 0.0094 |
| GCGGCCGGGG | 0.999 ± 0.024 |
| TTTGATATGG | 0.999 ± 0.038 |
| GCACGCCGAG | 1.01 ± 0.012 |
